{
  "source": "paper PMC7887213",
  "about": "(Nature Communications, 2021)",
  "binders": {"B1": {"name": "Fab395 with elbow mutations in the heavy chain (crystallised form) (Fab, V domains shown)", "VH": "QEQLVESGGGVVQPGRSLRLSCAAASEFCFSCYGMHWVRQAPGKGLEWVAVIWHDGSNQHFADSVKGRFTISRDNSKNIMYLQMNSLRAEDTAVYYCASATRYDILTGAFDYWGQGTLVTVVS", "VL": "DIQMTQSPSTLSASVGDRVTITCRASQSISTWLAWYQQKPGKAPKLLIYKASSLESGVPSRFSGSGSGTEFTLTISSLQPDDFATYYCQQYSRYWTFGQGTKVEIK", "notes": "source: ExpiCHO cells, purified (HiTrap Protein G, SEC)"}, "B2": {"name": "Fab399 (Fab, V domains shown)", "VH": "EVQLVESGGGLVQPGRSLRLSCTTSGFTFGDYAMSWFRQAPGKGLEWVGFIRSKGFGGTAEYAAFVKGRFTISRDDSRSIAYLQMTSLKPEDTAVYYCSRVGVVIATAVYWGQGTLVTVSS", "VL": "DILMTQTPLSLSVTPGQPASISCKSSQSLLDNDGKTYLYWYLQKPGQSPQLLIYEVSNRFSGVPERFSGSGSGTDFTLKIRRVEAEDVGVYYCMQRIDLPWTFGQGTKVEIK", "notes": "also called mAb399; source: ExpiCHO cells, purified (HiTrap Protein G, SEC)"}, "B3": {"name": "Fab366 with elbow mutations in the heavy chain (crystallised form) (Fab, V domains shown)", "VH": "QVQLVQSGAEVKKPGASARVSCKASGYTLTDFYLHWVRQAPGQGLEWMGWLNPHSGGTNYAQKFLGRVSMTRDTSISTAYMELNKLISDDTAVYFCVRSDQEALRGAFDIWGQGTMVFVVS", "VL": "DIQMTQSPSSLSASVGDTVTITCRASQSINDYLNWYQQKPGKAPKLLIYATSSLHSGVPSRFSGSGFGTDFTLTISSLQPEDSATYLCQQSHSLWTFGQGTKVEVK", "notes": "as for B1"}},
  "details_in_all_cases": "both partners purified",
  "key": {"[1]": {"target": "T1, NPNA2 peptide (Ac-[residues removed]-NH2) (Plasmodium falciparum (synthetic CSP …)", "T1 construct": "source: synthetic peptide, bought: Innopep Inc", "test": "crystal structure; Fab at 10 mg/ml mixed with peptide at 1:5 molar ratio of Fab to peptide; sitting drop vapor diffusion"}, "NPNA3 peptide": {"target": "T2, NPNA3 peptide (Plasmodium falciparum (synthetic CSP …))", "T2 construct": "source: synthetic peptide, bought: Innopep Inc", "test": "crystal structure; Fab at 10 mg/ml mixed with peptide at 1:5 molar ratio of Fab to peptide; sitting drop vapor diffusion"}, "[2]": {"target": "T3, NPNA4 peptide (Ac-[residues removed]-NH2) (Plasmodium falciparum (synthetic CSP …)", "T3 construct": "source: synthetic peptide, bought: Innopep Inc", "test": "ITC; peptide in the syringe, Fab (~10 uM) in the cell; DPBS; 25 C; single-site binding model; triplicate; apparent affinity"}, "[3]": {"target": "T4, NPNA6 peptide (Ac-[residues removed]-NH2) (Plasmodium falciparum (synthetic CSP …)", "T4 construct": "source: synthetic peptide, bought: Innopep Inc", "test": "ITC; peptide in the syringe, Fab (~10 uM) in the cell; DPBS; 25 C; single-site binding model; triplicate; apparent affinity"}},
  "data": [
    {"binder": "B1", "values": [
      {"measurement": "binding result", "setting": "[1]", "result": "binds"}
    ]},
    {"binder": "B2", "values": [
      {"measurement": "binding result", "setting": "NPNA3 peptide", "result": "binds"},
      {"measurement": "Kd", "setting": "[2]", "result": 5.92, "unit": "µM"},
      {"measurement": "Kd", "setting": "[3]", "result": 0.094, "unit": "µM"}
    ]},
    {"binder": "B3", "values": [
      {"measurement": "binding result", "setting": "NPNA3 peptide", "result": "binds"}
    ]}
  ]
}
